Experimental findings from publication PMC9342898 are described below.

One experiment has as its target F-actin (UniProt P68135). As to the kind of experiment: pull-down; actin isolation: 5 µM MVI ± 15 µM NDP52 with 5 µM F-actin (20% biotinylated), streptavidin Dynabeads, 150 mM NaCl, 50 mM Tris.HCl pH 7.5, 1 mM MgCl2, 1 mM DTT, RT; SDS–PAGE of pellet and supernatant.
In experiment [1] the target is MVI_(TAIL(NI)). As to the kind of experiment: FRET or BRET; stopped flow; 1 µM FITC-MVI_TAIL(NI) and 1 µM AF555-MVI_TAIL(NI) pre-mixed, then mixed with an excess of unlabelled NDP52, pseudo-first order; 25°C, 50 mM Tris–HCl pH 7.5, 150 mM NaCl, 1 mM DTT, 3 mM MgCl2. On the technique in general: BRET reads energy transfer from a luciferase to a nearby fluorophore.
The target in experiment [2] is MVI_(TAIL(NI)). The experiment is described as above. This is another data set of the same source.
Another experiment concerns the target MVI_(814–1060). In words: FRET or BRET; titration of Alexa555-CBD against 1 µM FITC-labelled N-terminal tail fragment, plate reader, 25°C, 50 mM Tris·HCl pH 7.5, 150 mM NaCl, 1 mM DTT; fitted to a quadratic binding equation.
The target of experiment [3] is MVI_(814–1091) (containing the LI). The experiment is described as above.
For experiment [4], the target named is MVI_(TAIL(NI)).
The target in experiment [5] is MVI_(TAIL(NI)). In words: FRET or BRET; stopped flow; 1 µM FITC-MVI_TAIL(NI) mixed with excess AF555-NDP52, pseudo-first order; 25°C, 50 mM Tris–HCl pH 7.5, 150 mM NaCl, 1 mM DTT, 3 mM MgCl2.
Experiment [6] has as its target T1, nuclear dot protein 52 (NDP52), Q13137.
T1 chain: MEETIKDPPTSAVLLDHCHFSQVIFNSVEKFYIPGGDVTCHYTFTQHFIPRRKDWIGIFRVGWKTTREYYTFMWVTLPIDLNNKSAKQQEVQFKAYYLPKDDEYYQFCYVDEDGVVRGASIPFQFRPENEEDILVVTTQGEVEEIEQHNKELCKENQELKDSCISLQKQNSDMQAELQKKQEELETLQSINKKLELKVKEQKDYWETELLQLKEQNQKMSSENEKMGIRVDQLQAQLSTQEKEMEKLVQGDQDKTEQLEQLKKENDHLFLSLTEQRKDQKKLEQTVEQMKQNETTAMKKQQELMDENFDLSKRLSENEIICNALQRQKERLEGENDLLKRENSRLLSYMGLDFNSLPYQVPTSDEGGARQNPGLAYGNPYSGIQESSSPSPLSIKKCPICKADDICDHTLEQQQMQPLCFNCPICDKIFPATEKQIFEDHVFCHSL
In words: SEC-MALS; 100 µl of 2 mg/ml protein on Superdex 200 (30 × 1 cm), 150 mM NaCl, 50 mM Tris.HCl pH 7.5, 1 mM DTT, room temperature. The conditions noted are these: remark: other sources report otherwise. Background: Size exclusion chromatography separates by hydrodynamic size, large species first.

Like-named read-outs stand apart in the source and are kept apart here.

In the experiment with F-actin, Full-length MVI NI (natural protein) came in with a percent of MVI bound to actin of 50% and a percent of MVI bound to actin (with an excess of NDP52) above 80%. Moreover, in the experiment with Full-length MVI NI, the kcat of the steady-state actin-activated ATPase of full-length MVI in the presence of dimeric NDP52 amounted to 2.11 s⁻¹ and the kcat of the steady-state actin-activated ATPase of full-length MVI in the presence of monomeric tDab2 came to 2.55 s⁻¹.

For MVI_(1–1060) (domain or fragment), the kcat of the steady-state actin-activated ATPase of MVI 1-1060 with MVI_(1–1060) stood at 2.79 s⁻¹.

On to MVI_(TAIL(NI)) (domain or fragment), for which the observed rate constant of the FRET increase (dimerization after adding NDP52) in the experiment with MVI_(TAIL(NI)) [1] turned out to be 2.2 s⁻¹; in the experiment with MVI_(TAIL(NI)) [2], 2.45 s⁻¹.

For orientation: Kd means a measure of binding affinity in units of concentration. The low end stands for higher affinity, the high end for lower affinity. With “Myosin VI cargo binding domain (CBD) (domain or fragment)”, the Kd with MVI_(814–1060) worked out at 4.8 µM; in experiment [3] it was 5.98 µM.

B1: nuclear dot protein 52 (NDP52) (natural protein)
chain: MEETIKDPPTSAVLLDHCHFSQVIFNSVEKFYIPGGDVTCHYTFTQHFIPRRKDWIGIFRVGWKTTREYYTFMWVTLPIDLNNKSAKQQEVQFKAYYLPKDDEYYQFCYVDEDGVVRGASIPFQFRPENEEDILVVTTQGEVEEIEQHNKELCKENQELKDSCISLQKQNSDMQAELQKKQEELETLQSINKKLELKVKEQKDYWETELLQLKEQNQKMSSENEKMGIRVDQLQAQLSTQEKEMEKLVQGDQDKTEQLEQLKKENDHLFLSLTEQRKDQKKLEQTVEQMKQNETTAMKKQQELMDENFDLSKRLSENEIICNALQRQKERLEGENDLLKRENSRLLSYMGLDFNSLPYQVPTSDEGGARQNPGLAYGNPYSGIQESSSPSPLSIKKCPICKADDICDHTLEQQQMQPLCFNCPICDKIFPATEKQIFEDHVFCHSL
modifications: Alexa Fluor 555 label in the stopped-flow FRET assay (site not stated); unlabelled elsewhere
The koff is the rate constant with which the complex falls apart. High values mean fast dissociation, low ones slow dissociation. By kon is commonly meant the rate constant with which the complex forms. As to B1, in the experiment with MVI_(TAIL(NI)) [4], the rate constant of the fluorescence decrease of Cy3B-calmodulin bound to MVI TAIL(NI) on mixing with excess NDP52 (unfolding; independent of NDP52 concentration) was found to be 1.95 s⁻¹. Further, in the experiment with MVI_(TAIL(NI)) [5], the Kd was found to be 1.94 µM; the koff was found to be 3.2 s⁻¹; the kon worked out at 1.65e+06 M⁻¹ s⁻¹; the rate constant of the second phase (unfolding after binding, independent of NDP52 concentration) worked out at 2.2 s⁻¹.

B2: nuclear dot protein 52 (NDP52), Q13137 1-446 (natural protein)
chain: MEETIKDPPTSAVLLDHCHFSQVIFNSVEKFYIPGGDVTCHYTFTQHFIPRRKDWIGIFRVGWKTTREYYTFMWVTLPIDLNNKSAKQQEVQFKAYYLPKDDEYYQFCYVDEDGVVRGASIPFQFRPENEEDILVVTTQGEVEEIEQHNKELCKENQELKDSCISLQKQNSDMQAELQKKQEELETLQSINKKLELKVKEQKDYWETELLQLKEQNQKMSSENEKMGIRVDQLQAQLSTQEKEMEKLVQGDQDKTEQLEQLKKENDHLFLSLTEQRKDQKKLEQTVEQMKQNETTAMKKQQELMDENFDLSKRLSENEIICNALQRQKERLEGENDLLKRENSRLLSYMGLDFNSLPYQVPTSDEGGARQNPGLAYGNPYSGIQESSSPSPLSIKKCPICKADDICDHTLEQQQMQPLCFNCPICDKIFPATEKQIFEDHVFCHSL
modifications: here or on the partner: Alexa Fluor 555 label in the stopped-flow FRET assay (site not stated); unlabelled elsewhere; Alexa Fluor 555 label in the stopped-flow FRET assay (site not stated); unlabelled elsewhere
For orientation: stoichiometry N means a count of units in the complex or per binding partner. With B2, the stoichiometry N in [6] turned out to be 2.
